Test results taken from US20260055211A1 (GLYCOERA, published 2026).

Columns and labels:
[1] = biological target: T1, biotinylated recombinant human ASGPR1 (Acro Biosystems) (human, UniProt P07306 62-291, biotinylated); assay: SPR (Biacore 8K), single cycle kinetics, biotinylated ASGPR1 immobilized, m1 as analyte, 2 mM CaCl2, heterogenous binding model; ka1, first component of the heterogenous binding model
T1 construct: Bought reagent
T1 sequence (looked up): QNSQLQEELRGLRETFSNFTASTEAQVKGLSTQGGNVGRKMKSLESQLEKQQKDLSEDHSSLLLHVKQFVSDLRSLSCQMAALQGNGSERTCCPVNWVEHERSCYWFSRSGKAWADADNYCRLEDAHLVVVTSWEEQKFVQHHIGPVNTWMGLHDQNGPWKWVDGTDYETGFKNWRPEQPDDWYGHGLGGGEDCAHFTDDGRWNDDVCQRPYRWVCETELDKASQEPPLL
Text: (§1) Methods: Surface plasmon resonance (SPR) was used to measure binding kinetics (i.e., ka, kd, KD, equilibrium) of the PR3 glycoengineered polypeptide analyte to a recombinant CLB12.8 ligand (anti-PR3 antibody) or a biotinylated recombinant human ASGPR1 ligand (Acro Biosystems). Data was collected with a Biocore 8K. Either recombinant CLB12.8 or ASGPR1 was immobilized to the surface of a sensor chip and sequential injections of increasing concentrations of the PR3 glycoengineered polypeptide were performed in a single cycle kinetics experiment. ASGPR1 assays included 2 mM CaCl2 in the running buffer. Data were fit with a 1:1 binding model for CLB12.8 and with a heterogenous binding model for ASGPR1 using the fitting software provided by Cytiva.

[2] = biological target: T1, biotinylated recombinant human ASGPR1 …; assay: SPR (Biacore 8K), single cycle kinetics, biotinylated ASGPR1 immobilized, 2 mM CaCl2, heterogenous binding model, KD1; pre-steady state KD1 (kinetic fit, first site)
Text: as §1

[3] = biological target: T1, biotinylated recombinant human ASGPR1 …; assay: SPR (Biacore 8K), single cycle kinetics, biotinylated ASGPR1 immobilized, 2 mM CaCl2, steady state fit; steady state KD (equilibrium fit)
Text: as §1

[4] = biological target: T2, recombinant anti-PR3 antibody CLB12.8; assay: SPR (Biacore 8K), single cycle kinetics, CLB12.8 immobilized, steady state fit
T2 construct: Mouse monoclonal anti-PR3 antibody (detected with anti-mouse IgG); recombinant form used in SPR; also called anti-PR3 antibody clone CLB12.8; anti-PR3 mouse antibody
Text: as §1

[5] = biological target: T1, biotinylated recombinant human ASGPR1 …; assay: SPR (Biacore 8K), single cycle kinetics, biotinylated ASGPR1 immobilized, m1 as analyte, 2 mM CaCl2, heterogenous binding model; kd1, first component of the heterogenous binding model
Text: as §1

[6] = biological target: T2, recombinant anti-PR3 antibody CLB12.8; assay: SPR (Biacore 8K), single cycle kinetics, CLB12.8 immobilized, m1 as analyte, 1:1 binding model
Text: as §1

[7] = biological target: T1, biotinylated recombinant human ASGPR1 …; assay: SPR (Biacore 8K), single cycle kinetics, biotinylated ASGPR1 immobilized, 2 mM CaCl2, heterogenous binding model, KD2; pre-steady state KD2 (kinetic fit, second site)
Text: as §1

[8] = biological target: T1, biotinylated recombinant human ASGPR1 …; assay: SPR (Biacore 8K), single cycle kinetics, ASGPR1 immobilized, 2 mM CaCl2, heterogeneous binding model; column kd2 (second component)
Text: as §1

[9] = biological target: T1, biotinylated recombinant human ASGPR1 …; assay: SPR (Biacore 8K), single cycle kinetics, ASGPR1 immobilized, 2 mM CaCl2, heterogeneous binding model; column ka2 (second component)
Text: as §1

[10] = biological target: T2, recombinant anti-PR3 antibody CLB12.8; assay: SPR (Biacore 8K), single cycle kinetics, CLB12.8 immobilized, kinetic (pre-steady state) fit, 1:1 binding model
Text: as §1

kon [1]: 1.61e+08 M⁻¹ s⁻¹ | Kd [2]: 46.9 nM | Kd [3]: 364 nM | Kd [4]: 32.4 nM | koff [5]: 7.54 s⁻¹ | koff [6]: 0.0754 s⁻¹ | kon [6]: 305000 M⁻¹ s⁻¹ | Kd [7]: 70.6 nM | koff [8]: 6.16e-05 s⁻¹ | kon [9]: 873 M⁻¹ s⁻¹ | Kd [10]: 24.7 nM
B1: PR3 glycoengineered polypeptide (other)
chain: IVGGHEAQPHSRPYMASLQMRGNPGSHFCGGTLIHPSFVLTAAHCLRDIPQRLVNVVLGAHNVRTQEPTQQHFSVAQVFLNNYDAENKLNDVLLIQLSSPANLSASVATVQLPQQDQPVPHGTQCLAMGWGRVGAHDPPAQVLQELNVTVVTAACRPHNICTFVPRRKAGICFGDAGGPLICDGIIQGIDSFVIWGCATRAAPDFFTRVALYVDWIRSTLRRVEAKGRPGGGGANSTAPAPAPAHHHHHHHHHH
modifications: N-glycans (81.5% A2GalNAc2, biantennary GalNAc-terminated) at the native sites N129 and N174 (numbering of UniProt P24158) and at the Asn of the C-terminal glycotag; 80-90% of molecules fully …
notes: Secreted from glycoengineered Leishmania tarentolae (cell line stCGP05880) and purified by IMAC; also called exemplary PR3 glycoengineered polypeptide; glycoengineered polypeptide of PR3
